{"source": "the DeepSol protein solubility set"}
{"assay": "soluble on expression in E. coli; label from the status in PepcDB or PDB records"}
{"sequence": "MNPILAMLKENNISNEQINELFQTLTQNPLAAMATLAQLGLPQDKMQMVLAQVMQNPALIKQAVEELGLDFAKVEAAKAKLQQ", "soluble on expression in E. coli": "not soluble"}
{"sequence": "MSLKVPGIRNYDGPAGGWGALKATATAVREQMDTLKAPLTLMRTNQPDGFDCPGCAWPDKEHKSTFQFCENGAKAVTWEATNKRVTPAFFAQHPVTSLLQRSDYELEDLGRLTEPLVYDRASDTFKPVAWQDAFARIGEILRSLQPEQVEFYTSGRASNEAAYLYQLFAREYGCNNFPDCSNMCHEPTSVGLPRSIGIGKGTVSLEDFDLCELIISIGHNPGTNHPRMMGTLHEASRRKVPIMVFNPLRERALERFADPQNMVEMATYGSTRIASSYFQVKAGGDAAAIKGIMKALLALEDSLGQVLDQAFIAEHTQGFEALAADLHATAWADIEQASGLHQADLEMVAAAYAKSNATIVTYGMGITQHNEGTANVRLICDLLMLRGNLGKPGAGICPLRGHSNVQGNRTVGITEKPSPAFLDKLQQTFGFTPPAHHGHDAVQAMQAMIAGSAKALLCLGGNFAVALPDPGQCFPAMGKLDLSVHIATKLNRSHLLVARETFLFPCLGRTELDMQDGLRQAITVEDSMSMVHASAGKLAPASEFLLSEPAIVAGMARATLPGSRVPWLELVADYDKIRDLIEQTVPGFDDYNARIRVPGGFRMPLAAAERQWLTPSGKAEFFVFPGLHEDKEVDGADVLRLITLRSHDQYNTTIYALDDRYRGVFGRRDVLFISPADLAARGLAHGDLVDIETVIGGRRLRYEKITAIEYKIANGTVGAYYPEANRLVPLDYLDVDSGTPSYKSVPVRVLRSSPAEGHHHHHH", "soluble on expression in E. coli": "soluble"}
{"sequence": "MLRVVEVCWRESHMKVLAINSSPRMDKGNTALILNPFLEGMKEAGAEVELFYTKKLKISPCTGEFNCWLKTPGKCYQNDDMNILYPRIDAADVIVFATPVYVDGVTGQMKNFIDRMLPRVEPFVELRDGHCRHPVRGGPKALKFVLVSNCGFWEMDNFDSLLVFMKAFCKNASTEFAGALLRPHGEALSSMLEMGAPIDDVFEAAREVGRQLVKEGKMSQETLDIVSRELLPKEMYIQIANQTFRQCLESLDRLEHHHHHH", "soluble on expression in E. coli": "not soluble"}
{"sequence": "MITSECIIYLARKYQCKFILLGRSAILATEPEWSIGCVDESELKKRIMQHLIEQQEKPTPIKVQNLYKKICQSREIYQTLADIKQGGGEAEYLSIDVTDTSALKSALAPVVARLGRITGIIHGAGNLADKLIEHKTEQDFQTVYNVKIEGLHSLINCVDIAQLKFIALFSSFVSFYGNVGQSDYSLANEILNKYAYLLQRKYPECHVVSFGWGPWDGGMVTPQLKQLFTQKNIKLIPLRVGAEILAEELTQDHTKVPQLIIMSQGISVLPKAFSPEKHSYRLYRRLTLQGNPFVYDHVIGGNAVLPAVCALAWMTNICEQFYPGYHFLSCQKYKVLKGIVFDDNLANLYCLDLTEVEKSEEEIQLEALIWSETPKGIPLYHYRALINISQKSHAQQALTFEDFNYYESSLSLNPYQEGILFHHQRFRGIQKILEITANKLIASCFLPEISPAEQGQFLTQSFNPYTADMFFQCLLIWVRQTYGLGSLPLELTALKQFYTLPFNQEFLINLSIEEQSETKVVASAIAHDIQGKVYLEATNMQVTSSARLNQLFLNNTVASKNTVCMLEHHHHHH", "soluble on expression in E. coli": "not soluble"}
{"sequence": "MDINLEYSLHDTQFFWQALSIRYHHAQRLKQLQRELAGFEQIKKFTLLPEAFSMEAGLITPTLKQRCKMIYHKYAHEINAMYNNLEHHHHHH", "soluble on expression in E. coli": "not soluble"}
{"sequence": "MSLHAAAVGPSVLPDLREQVEQIIAEARRQGASACEVAVSLEQGLSTSVRQGEVETVEFNRDQGFGITLYAGQRKGSASTSATGEAAIRETVAAALAIARHTSEDECAGLADAALMARELPELDLYHPWSLSPEQAVERALACEAAAFAADKRVTKADGTTLNTHQGCRVYGNSHGFIGGYASTRHSLSCVMIAEGEGQMQRDYWYDVNRRGEALASAESIGRRAAERAASRLGARPVQTAEVPVLFAPEIAVGLFGHFLGAISGGSLYRKSSFLEGALGQRLFPEWLSIDERPHLVGALGSASFDSDGLATYAKPFVENGELVSYVLGTYSGRKLGLPSTANAGGVHNLFVSHGDEDQAALIRRMERGLLVTELMGQGVNLVTGDYSRGAAGYWVENGEIQFPVQEVTIAANLRDLFRRIVAVGKDIERRGNLHTGSVLVESMMVAGR", "soluble on expression in E. coli": "soluble"}
{"sequence": "APAADAAQAHDPLSVQTGSDIPASVHMPTDQQRDYIKREVMVPMRDGVKLYTVIVIPKNARNAPILLTRTPYNAKGRANRVPNALTMREVLPQGDDVFVEGGYIRVFQDIRGKYGSQGDYVMTRPPHGPLNPTKTDETTDAWDTVDWLVHNVPESNGRVGMTGSAYEGFTVVMALLDPHPALKVAAPESPMVDGWMGDDWFHYGAFRQGAFDYFVSQMTARGGGNDIPRRDADDYTNFLKAGSAGSFATQAGLDQYPFWQRMHAHPAYDAFWQGQALDKILAQRKPTVPMLWEQGLWDQEDMWGAIHAWQALKDADVKAPNTLVMGPWRHSGVNYNGSTLGPLEFEGDTAHQYRRDVFRPFFDEYLKPGSASVHLPDAIIYNTGDQKWDYYRSWPSVCESNCTGGLTPLYLADGHGLSFTHPAADGADSYVSDPAHPVPFISRPFAFAQSSRWKPWLVQDQREAESRPDVVTYETEVLDEPVRVSGVPVADLFAATSGTDSDWVVKLIDVQPAMTPDDPKMGGYELPVSMDIFRGRYRKDFAKPEALQPDATLHYHFTLPAVNHVFAKGHRIMVQIQSSWFPLYDRNPQKFVPNIFDAKPADYTVATQSIHHGGKEATSILLPVVKQKLGPEQKLISEEDLNSAVDHHHHHH", "soluble on expression in E. coli": "soluble"}
{"sequence": "MSLSTMGPLGGISVIFDLDGTLVDSEPHYYEAGRRTLAEYGVPDFSWADHEAYVGISTQETVADWKRRYGLRATVEELLAVKNRHYLGLARTSARAYPEMRKFVELLAGEGVPMAVASGSSPEAIAAILARTGLDAHLRTVVSADEVARGKPAPDVFLEAARRLGTEPARCVVLEDAAPGAAAAHAAGMRCIAIPYVSGQADAPEFATAELLVRGGQEEFTARAAHDWLRTDGNATRETEGHHHHHH", "soluble on expression in E. coli": "soluble"}
{"sequence": "MEAEELTVGRVHHGHNIRRFRIEKNMNQEVLSQLVHLSQSAVSKYEQMRVIDDEMLHRFSRALGVPFEYLKSLEEDAQTVVFENNTVNNNDQASANIGGYVEENNRVNNYNPIEKITELYERLLKEKDEKYAALERRLQNIEQSLQK", "soluble on expression in E. coli": "not soluble"}
{"sequence": "MAKKEIEPKTEQAKRLRLIRKSLQLHRDQIATRLGINKAIYDHAERGTTFPNVEFLTALSQQLKVNLNWFITGNGEMFTDMAKAKAAGFKPQAIPAGLMKRLGHLAYTTYRDAKITLPPEDVAELAAGLYGKLQELIYNINDMEEVEATLPLLKLHLKRQVEAEKAH", "soluble on expression in E. coli": "not soluble"}
{"sequence": "MDIVQLGPAELKAWMDEGRMFCLLDVRTDEETAVCSLPNALHIPMNLIPLRQNELPDDVPLVVYCHHGIRSLHTAMYLADAGFENLYNLQGGIDAWAAEIDGNMMRY", "soluble on expression in E. coli": "not soluble"}
{"sequence": "MKKTIYKCVLPLLICILLTGCWDRTEINDIAFVVSSAIDKKKDQYRVAMQIPLVGQLGGQTGGGGGTAGSKTWYVDSASGTTIREANNKLQTSLSRTINTSHRRTVIIGEDMARDGVAPVFDILTRNPQNRLTALILVSRGEARDILNTDVQLEQFPAEMIRELAIIATSRPVFLSRFMSDLVEIGSDPYAPVISASKTKPGGKGKSNLKIDGLAIFKKDRLMDIFKDEHMTAALMLLNQARQPEFIVDLPNQMGQASIQLQKSNASFHAAEKNGKLSMTIEIRAKGIIMENQSTYETRENDQYYIIQKALNRTIKKDVISTVHRLQKLKADPAGFQDRTIRSTATTKNLLKKEWEEVYKDMEVHVVPIVTIEQGGVLYKTISH", "soluble on expression in E. coli": "not soluble"}
{"sequence": "MGSDKIHHHHHHMEKAVENFEDLSKEYINGYIERARKAQREFECYTQEQVDKIVKIVGKVVYYNAEYLAKLAVEETGMGVYEDKVAKNKSKAKVIYNNLKDKKSVGIIDIDRETGITKVAKPVGVVAAITPCTNPIVTPMSNAMFALKGRNAIIITPHHKAIGCSTKTVEMINEELEKIGAPENLIQILDQQSRENTRNLISSADVVIATGGMGMVKAAYSSGKPALGVGAGNVQCIIDRDVDIKEAVPKIIAGRIFDNGIICSGEQSVIVAEEMFDKIMDEFKNNKGFIVRDKVQKEAFRNAMFVNKSMNKDAVGQSVHTIAKIAGVEIPEDTKIIVIEADGPGEEDIIAKEKMCPVISAYKYKSFEEGVAIAKANLNVEGKGHSVSIHSNTVKNIEYAGENIEVSRFVINQCCATSAGGSFFNGLAPTNTLGCGSWGNNSISENLDYKHLINISRIAYYMPENEVPTDEELWG", "soluble on expression in E. coli": "not soluble"}
{"sequence": "MAHHHHHHMQETQELRCATTQMAPAVIFPLPPPLRGSYIDRKPTAASFNEHHATASFRHHMIASADVSHRPRHFYFASGTRNDTGTRSVKEGERKQLKQQTNVEVDSVAYGDQLDELSARWAAKFYGQVTFGPRNYPYPSSRWLARRFQMKKHRIIKRFRFRRYKLAAVANLPFAKMIRVGMLPELKSSKTKRGDVVDPTLSGQLVSAVKNTGEKRKGQRTRPKSKYQV", "soluble on expression in E. coli": "soluble"}
{"sequence": "MSLMRIVFDIGGSVLVPEKPDVDFITKLGYELTKISEDHEIAIVVGGGKVAREYIEVASKFNTNETFKDYLGIQITRANAMLLIAALKERAYPQVVSDFWEAWKAIQLKKIPVMGGTHPGHTTDAVSALLAEFLSADLLVVITNVDGVYTEDPKKNPNAKKIPKMKAKDLVDIVSREAGKAGVSTVIDPLAAKIIMRSGIKTYVIGKEDALKLFDVIKGNHNGTIIEPEGHHHHHH", "soluble on expression in E. coli": "soluble"}
{"sequence": "MVHHDGTLQALITAYQKTPAFTDLAEATRKGYIRHIRQIEADFGDMPVQALADPRVRGEFLDWRDRLAQKSKRSADYAFSVLARILSWAHDRRKIPVNPCEKPGRLYTLEHHHHHH", "soluble on expression in E. coli": "not soluble"}
{"sequence": "MSLHQFQQDNQYFIFNFDRTFEQATEFFQAEFWQKQERVIGSAKGRGITYFLQTEDWFGVNCALRHYYRGGLWGKLNKDRYRFSALETTRSFAEFHLLQRLYEAGLPVPKPIAARIQKGKLGICYQADILTEKIENAQDLTALLQTQTLPKETWMQIGRLIRKLHDLQICHTDLNAHNILLQQTEQGQKCWLLDFDKCGEKSADFWKVQNLNRLKRSFEKEVGRMNIQFTEQNWADLTSAYHQEGHHHHHH", "soluble on expression in E. coli": "soluble"}
{"sequence": "MGSDKIHHHHHHMTDDIYFAPLLPWQHGLWSQLTMRVLAQKQSLPHALLAAGMQGMGKRAFVWRLVAWLLCRARDEHPLGACGHCESCQWLRSGTHPSLQALPLISLPISADNAHTQEVASGTAKDKKTTKAASNGSLKIKVDEIRALQPFIYQGGQGMRICVLDHAEQMTIAAANALLKTLEEPQAQVHLFLISDAPAQLLPTIKSRVQQLSLQTIDPAIAVDYVTKVLGSTVHREALGTDVIEQLIQLANGAPLAAVALAQAPWYSKRALWLTTWQALRSGKRSSVAASDYWQIHLGIAEFIRLSELMVIDIRRVGLGFEAQQKDINFSTTLNGYQPIDNELEAFAHSLQQTKIALQQNVQEKFAYDKLMQELACL", "soluble on expression in E. coli": "not soluble"}
{"sequence": "MKFKYGATLFSGFLGLSAILAACGAKGKFDQVDDGKIVLASSLTSKNAANALQAVVEKYNQVKGGNDYPIEITQITGGYDGGRGNLQTKLSVKDKTTFYNLI", "soluble on expression in E. coli": "soluble"}
